Test results from paper PMC4496268.

Target: syntaxin-1, endogenous in cultured mouse neurons (mouse (endogenous in cultured neurons of Syt1 KO mice)) (UniProt O35526)
Assay: co-IP

Sequence of UniProt O35526 (O35526 whole entry): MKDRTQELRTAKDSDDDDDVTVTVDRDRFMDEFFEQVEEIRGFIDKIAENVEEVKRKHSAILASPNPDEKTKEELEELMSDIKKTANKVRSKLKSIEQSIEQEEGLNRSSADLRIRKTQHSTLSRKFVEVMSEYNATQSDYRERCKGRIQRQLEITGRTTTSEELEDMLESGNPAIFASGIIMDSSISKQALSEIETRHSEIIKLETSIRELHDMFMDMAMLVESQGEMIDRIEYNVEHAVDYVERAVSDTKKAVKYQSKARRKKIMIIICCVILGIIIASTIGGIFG

**Q.** How did the decrease of co-immunoprecipitated Syt1 against WT Syt1 turn out when “Synaptotagmin-1 R322E K325E mutant, expressed in Syt1 KO neurons (from UniProt P21707 1-421) (natural protein)” was run?
**A.** 62%
